Our source for the Kd values is the supplement of paper PMC6379048.

Common to all, as to test: Kd (EC50 corrected by depletion factor)
In one series the target is T1, HNRNPR (UniProt O43390).
T1 sequence: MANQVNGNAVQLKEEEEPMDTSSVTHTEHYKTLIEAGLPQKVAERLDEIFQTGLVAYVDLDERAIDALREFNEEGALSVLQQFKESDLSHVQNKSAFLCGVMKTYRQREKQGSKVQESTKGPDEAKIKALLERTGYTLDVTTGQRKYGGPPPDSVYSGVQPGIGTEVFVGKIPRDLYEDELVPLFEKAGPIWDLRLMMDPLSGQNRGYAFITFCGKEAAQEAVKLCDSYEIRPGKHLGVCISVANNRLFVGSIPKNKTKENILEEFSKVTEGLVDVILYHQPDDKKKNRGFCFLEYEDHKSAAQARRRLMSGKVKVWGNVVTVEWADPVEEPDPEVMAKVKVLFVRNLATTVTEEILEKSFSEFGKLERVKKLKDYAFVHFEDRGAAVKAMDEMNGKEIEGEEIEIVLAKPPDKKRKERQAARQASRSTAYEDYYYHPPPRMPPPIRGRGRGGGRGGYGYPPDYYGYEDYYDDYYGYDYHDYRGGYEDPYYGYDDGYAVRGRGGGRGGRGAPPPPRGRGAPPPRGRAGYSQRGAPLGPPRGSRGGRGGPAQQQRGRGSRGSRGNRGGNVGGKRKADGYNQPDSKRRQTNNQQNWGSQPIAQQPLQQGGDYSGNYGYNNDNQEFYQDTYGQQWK
The method in brief:
(§1)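 To obtain EC50, data were fitted with a four-parameter log-logistic model; Kd was then EC50 multiplied by a protein-dependent depletion factor. Beforehand, free RNA oligos (0 nM to 30 μM) were pre-incubated with HEK293-FT lysate (2.5 mg protein/well) for 1 h at 4°C. The lysate then spent 30 min at 4°C with the same 5′-amino-C6 oligos coupled to NHS-Sepharose beads, and bound proteins were quantified by label-free LC-MS/MS, normalised to the control.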

For another series, the target named is T2, TIAL1 (UniProt Q01085).
T2 sequence: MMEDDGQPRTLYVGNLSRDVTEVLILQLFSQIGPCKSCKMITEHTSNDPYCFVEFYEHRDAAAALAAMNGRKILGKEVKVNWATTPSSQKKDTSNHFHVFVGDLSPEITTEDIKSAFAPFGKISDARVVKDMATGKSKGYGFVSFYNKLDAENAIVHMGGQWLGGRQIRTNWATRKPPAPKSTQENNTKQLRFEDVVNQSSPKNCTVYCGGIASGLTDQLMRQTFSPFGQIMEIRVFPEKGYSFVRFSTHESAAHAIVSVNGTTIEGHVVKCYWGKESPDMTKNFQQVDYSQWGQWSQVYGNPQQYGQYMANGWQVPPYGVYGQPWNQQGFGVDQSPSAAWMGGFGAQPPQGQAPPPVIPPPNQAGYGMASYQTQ
In a few lines:
as §1

For the next series, the target named is RPS13 (UniProt P62277). In a few lines:
as §1

The target of another series is T3, CDKN2AIP (UniProt Q9NXV6).
T3 sequence: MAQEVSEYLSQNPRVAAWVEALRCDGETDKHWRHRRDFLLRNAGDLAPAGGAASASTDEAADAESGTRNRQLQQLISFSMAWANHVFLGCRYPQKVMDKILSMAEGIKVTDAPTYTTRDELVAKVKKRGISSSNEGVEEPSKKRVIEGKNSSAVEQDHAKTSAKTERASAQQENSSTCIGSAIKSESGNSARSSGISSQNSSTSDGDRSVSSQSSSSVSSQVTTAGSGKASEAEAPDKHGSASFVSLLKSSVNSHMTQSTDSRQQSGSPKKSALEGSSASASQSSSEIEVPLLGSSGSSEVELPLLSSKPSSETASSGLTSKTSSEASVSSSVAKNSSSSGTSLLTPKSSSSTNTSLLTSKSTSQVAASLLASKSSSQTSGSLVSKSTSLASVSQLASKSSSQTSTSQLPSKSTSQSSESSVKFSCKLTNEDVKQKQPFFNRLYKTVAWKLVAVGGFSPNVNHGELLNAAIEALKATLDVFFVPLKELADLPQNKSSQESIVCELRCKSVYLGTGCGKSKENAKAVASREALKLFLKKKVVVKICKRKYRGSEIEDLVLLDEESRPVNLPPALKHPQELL
In a few lines:
as §1

A further series concerns the target T4, CWF19L1 (UniProt Q69YN2).
T4 sequence: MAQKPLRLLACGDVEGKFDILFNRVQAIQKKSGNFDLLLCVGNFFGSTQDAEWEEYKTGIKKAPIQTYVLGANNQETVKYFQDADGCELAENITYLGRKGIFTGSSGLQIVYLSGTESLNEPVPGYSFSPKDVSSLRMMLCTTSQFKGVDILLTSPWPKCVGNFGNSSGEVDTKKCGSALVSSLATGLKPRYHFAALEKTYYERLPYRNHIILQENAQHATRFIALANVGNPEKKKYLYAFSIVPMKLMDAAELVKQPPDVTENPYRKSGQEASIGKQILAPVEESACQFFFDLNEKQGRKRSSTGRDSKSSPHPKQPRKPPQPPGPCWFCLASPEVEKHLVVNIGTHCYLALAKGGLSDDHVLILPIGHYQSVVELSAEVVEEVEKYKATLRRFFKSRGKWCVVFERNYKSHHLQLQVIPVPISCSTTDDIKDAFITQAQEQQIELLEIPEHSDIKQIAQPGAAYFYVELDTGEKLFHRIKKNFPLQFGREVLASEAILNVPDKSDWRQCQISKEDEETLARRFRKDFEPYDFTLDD
In a few lines:
as §1

Another series has as its target T5, ERAL1 (UniProt O75616).
T5 sequence: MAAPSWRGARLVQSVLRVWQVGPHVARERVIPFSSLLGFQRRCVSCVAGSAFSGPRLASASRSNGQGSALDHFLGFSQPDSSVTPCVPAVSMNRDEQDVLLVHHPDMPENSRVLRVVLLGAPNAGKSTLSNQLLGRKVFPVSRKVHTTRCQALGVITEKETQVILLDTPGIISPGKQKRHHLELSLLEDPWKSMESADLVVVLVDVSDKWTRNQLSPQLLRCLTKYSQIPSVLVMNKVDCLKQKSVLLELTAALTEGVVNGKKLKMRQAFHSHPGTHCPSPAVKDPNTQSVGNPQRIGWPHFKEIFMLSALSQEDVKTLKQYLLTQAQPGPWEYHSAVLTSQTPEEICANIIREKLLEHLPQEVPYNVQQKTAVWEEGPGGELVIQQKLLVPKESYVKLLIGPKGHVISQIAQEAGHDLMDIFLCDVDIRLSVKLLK
In a few lines:
as §1

On to AAUAAA, for which the Kd in the series with HNRNPR is 677 nM; in the series with TIAL1 it was 11.2 nM.
In turn, CUGUCCU yielded a Kd with RPS13 of 39.9 nM.
Take UAUUUAU: the Kd with CDKN2AIP amounted to 368 nM; with CWF19L1, 1960 nM; with ERAL1, 25.5 nM.
